Measured values as given in the supplement of paper PMC11780869.

Test system: Bacillus subtilis
Assay: cleaved RNA product abundance (RNA/gDNA barcode ratio) relative to median wild-type variant (ratio to wild type); higher = more accumulation of the downstream cleavage product
Outline: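 B. subtilis strains with chromosomally integrated reporter mRNAs (truncated aprE or tetM) holding barcoded, mutagenized RNase Y cleavage-site windows grew in LB at 37°C from OD600 0.0003 to 0.3. Cleaved product abundance is each construct's RNA:gDNA barcode ratio, scaled to the median construct with the unmutated site. It came from sequencing barcodes of gel-selected, reverse-transcribed cleaved RNA and of genomic DNA.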

[1] = experiment (reporter, strain, medium): exp 8a: truncated aprE reporter, strain BJT201 with 2% xylose (RNase J1 expressed), cleavage site: glnRA (positions -5 to +31 mutated)
[2] = experiment (reporter, strain, medium): exp 4a: truncated aprE reporter, strain BJT201 with 2% xylose (RNase J1 expressed), cleavage site: cggR-gapA (positions -7 to +36 mutated)
[3] = experiment (reporter, strain, medium): exp 2b: truncated aprE reporter, strain BJT200, cleavage site: cggR-gapA (positions -7 to +36 mutated)

Row | Sequence | cleaved RNA product abundance [1] | cleaved RNA product abundance [2] | cleaved RNA product abundance [3]
1 | CGACATGTCCCGCTTCTTTCATTAATCCTTAAGCAACTGTTTTGCTATATACATTTACCTTTTAAGAGGAGGAAT | 0.419 | – | –
2 | ACAGACGAAGGAGCCGCAAACAAGTTATTAAGGGATGAATAATCCCCCAATATAAATATCTCTCACTTATTTAAA | – | 0.137 | –
3 | ACAGACGAAGGAGCCGCAAAGAAGTTATTAAGGGATGAAAAATCCCTCAATATAAATAACTCTCACTTATTTAAA | – | 0.632 | –
4 | ACAGACGAAGGAGCCGCAAAGCAGTTATTAAGTGATGAATAATCCCTCAATATAAATATCTCTCACTTATTTAAA | – | 0.0809 | –
5 | ACAGACGAAGGAGCCGCAAAGAAGTTATTAAGGGACGAATAATCCGTCAATATAAATATCTCTCACTTATTTAAA | – | 0.072 | 0.0596
6 | CGACATGTCCCGCTTCTTTCATTAATCCGTTAGCAACTGTTTAGCTATATACATTTACATTTTAAGAGGAGGAAT | 0.588 | – | –
7 | ACAGACGAAGGAGCCGCAAAGAAGTTATTAAGAGAAGAATAAACCCTCAATATAAATATCTCTCACTTATTTAAA | – | 0.0499 | –
8 | CGACATGTCCCGCTTCTTTCATTAATCCGTTATAAACTGTTTTGCTATATACATTTACCTTTTAAGAGGAGGAAT | 0.276 | – | –
9 | ACAGACGAAGGAGCCGCAAATAAGTTATTACGGGATGAATAATCCCTCAATATAAATATCTCTCACTTATTTAAA | – | 0.36 | –
10 | CGACATGTCCCGCTTCTTTCATTAATCCGTTAGCAACTGTTATGCTATATACATTTAGCTTTTAAGAGGAGGAAT | 0.711 | – | –
11 | ACAGACGAAGGAGCCGCAAAGAAGTTATTAATAGATGAATAATCCCTCAATATAAATATCTCTCACTTATTTAAA | – | 0.116 | 0.0972
12 | ACAGACGAAGGAGCCGCAAAGAAGTTATAAAGGGATGAATAATCCCTCAATATAAAAATCTCTCACTTATTTAAA | – | – | 0.338
13 | ACAGACGAAGGAGCCGCAAAGAAGTTATTACGGCATGAATAATCCCTCAATATAAATATCTCTCACTTATTTAAA | – | 0.204 | 0.0982
14 | ACAGACGAAGGAGCCGCAAAGAAGTTATTAAGGGATGAATAATCCCTCAATATAACCATCTCTCACTTATTTAAA | – | 0.296 | –
15 | CGACATGTCCCGCTTCTTTCATTAATCCGTTACCAACTGTTTTGCTATATACCTTTACCTTTTAAGAGGAGGAAT | 0.153 | – | –
16 | CGACATGTCCCGCTTCTTTCATTAATGCGTTAGCAATTGTTTTGCTATATACATTTACCTTTTAAGAGGAGGAAT | 0.995 | – | –
17 | ACAGACGAAGGAGCCGCAGAGAAGTTATTAAGTGATGAATAATCCCTCAATATAAATATCTCTCACTTATTTAAA | – | 0.161 | –
18 | ACAGACGAAGGAGCCGCAAAGAAGTTATTAAAGGATGAATAATCCCCCAATATAAATATCTCTCACTTATTTAAA | – | 0.156 | 0.152
19 | ACAGACGAAGGAGCCGCAAAGAAGTTATTAAGGGATGAATAATCCTTCAATAAAAATATCTCTCACTTATTTAAA | – | – | 0.185
20 | ACAGACGAAGGAGCCGCAAAGAAGTTATTAAGGGATGAATAATCCCTCAAAATAAAAATCTCTCACTTATTTAAA | – | 0.393 | –
21 | CGACATGTCCCGCTTCTTTCATTAATTCGTTAGCAACTGTTTTGCTATATTCATTTACCTTTTAAGAGGAGGAAT | 0.627 | – | –

Row | Sequence | cleaved RNA product abundance [1] | cleaved RNA product abundance [2] | cleaved RNA product abundance [3]
22 | ACAGACGAAGGAGCCGCAAAGAAGTTATTAAGGGGTGAATAATCCCTCAATATAAATACCTCTCACTTATTTAAA | – | 0.623 | –
23 | CGACATGTCCCGCTTCTTTCATTAATCCGTTAGCAACTTTTTTGCTATATACATTTTCCTTTTAAGAGGAGGAAT | 0.343 | – | –
24 | ACAGACGAAGGAGCCGCAAAGAAGTTATTAAGGGATGAATAATAACTCAATATAAATATCTCTCACTTATTTAAA | – | 0.128 | 0.0902
25 | CGACATGTCCCGCTTCTTTCATTAATCCGTTACCAACTGTTTTGCTATATACATTTCCCTTTTAAGAGGAGGAAT | 0.127 | – | –
26 | ACAGACGAAGGAGCCGCAAAGAAGTTATTCAGGGATGAACAATCCCTCAATATAAATATCTCTCACTTATTTAAA | – | 0.603 | –
27 | ACAGACGAAGGAGCCGCAAAGAAGTTATTAAGGGTTGAGTAATCCCTCAATATAAATATCTCTCACTTATTTAAA | – | 0.375 | –
28 | CGACATGTCCCGCTTCTTTCATTAATCCGTTAGCAACTGTTTTGCTAAAGACATTTACCTTTTAAGAGGAGGAAT | 0.0969 | – | –
29 | ACAGACGAAGGAGCCGCAAAGAAGTTACTAAGGGATGAATAATCCCTCAATATATATATCTCTCACTTATTTAAA | – | 0.346 | –
30 | ACAGACGAAGGAGCCGCAAAGAAATTATTAAAGGATTAATAATCCCTCAATATAAATATCTCTCACTTATTTAAA | – | 0.142 | –
31 | CGACATGTCCCGCTTCTTTCATTAATCCGTGAGCAACTGTTTTGCTATATACATTTACTTTTTAAGAGGAGGAAT | 0.477 | – | –
32 | CGACATGTCCCGCTTCTTTCATTAATCCGTTAGCAACGGTTTTGCCATATACATTTACCTTTTAAGAGGAGGAAT | 0.202 | – | –
33 | ACAGACGAAGGAGCCGCAAAGAAGTTATTAACGGATGAATAATTCCTCAATATAAATATCTCTCACTTATTTAAA | – | 0.152 | –
34 | ACAGACGAAGGAGCCGCAAAAAAATTATTAAGGGATGAATAATCCCTCAATATAAATATCTCTCACTTATTTAAA | – | 1.04 | 1.1
35 | ACAGACGAAGGAGCCGCTAAGAAGTTATTAAGGGATGAATAACCCCTCAATATAAATATCTCTCACTTATTTAAA | – | 0.437 | –
36 | ACAGACGAAGGAGCCGCTAAGAAGTTATTAAGGCATGAATAATCCCTCAATATAAATATCTCTCACTTATTTAAA | – | – | 0.115
37 | ACAGACGAAGGAGCCGCAAAGAAGTTATTAAGGGATGAATAATCCCTCCAAATAAATATCTCTCACTTATTTAAA | – | 0.313 | 0.239
38 | ACAGACGAAGGAGCCGCAAAGAAGTTATTAAGGGATGAATAATTGCTCAATATAAATATCTCTCACTTATTTAAA | – | 0.0655 | 0.0946
39 | ACAGACGAAGGAGCCGCAGAGAAGTTATTAAGGGATGAATAATCCCTAAATATAAATATCTCTCACTTATTTAAA | – | 0.755 | –
40 | ACAGACGAAGGAGCCGCAAAGAAGTTATTAAGGGATTAATAATCCCTCAAGATAAATATCTCTCACTTATTTAAA | – | 0.254 | 0.203
41 | CGACATGTCCCGCTTCTTTCATTAGTCAGTTAGCAACTGTTTTGCTATATACATTTACCTTTTAAGAGGAGGAAT | 0.249 | – | –
42 | ACAGACGAAGGAGCCGCAAAGAATTTATTAAGGGATGAATACTCCCTCAATATAAATATCTCTCACTTATTTAAA | – | 0.583 | 0.404

Row | Sequence | cleaved RNA product abundance [1] | cleaved RNA product abundance [2] | cleaved RNA product abundance [3]
43 | CGACATGTCCCGCTTCTTTCATTAAGCCGTTAGCAACTGTTTTGCTATATACATTTACCTTTTAAGAGGAGGAAT | 0.855 | – | –
44 | ACAGACGAAGGAGCCGCAAAGAAGTTATTAAGGGATCTATAATCCCTCAATATAAATATCTCTCACTTATTTAAA | – | 0.87 | –
45 | ACAGACGAAGGAGCCGCAAAGAAGTGATTAAGGGATGAATAACCCCTCAATATAAATATCTCTCACTTATTTAAA | – | 0.163 | –
46 | ACAGACGAAGGAGCCGCAAAGAAGTTATTAAGGGATGATTAATCCCTTAATATAAATATCTCTCACTTATTTAAA | – | 0.554 | –
47 | ACAGACGAAGGAGCCGCAAAAAAGTTATTAAGGGATGAATAATCCGTCAATATAAATATCTCTCACTTATTTAAA | – | 0.242 | 0.168
48 | CGACATGTCCCGCTTCTTTCATTAATCCGTTAGCAACTGTTATCCTATATACATTTACCTTTTAAGAGGAGGAAT | 0.337 | – | –
49 | ACAGACGAAGGAGCCGCAAAGTAGTTATTAAGGCATGAATAATCCCTCAATATAAATATCTCTCACTTATTTAAA | – | 0.124 | 0.101
50 | ACAGACGAAGGAGCCGCAAAGATGTTATTAAGGGATGAATAATCCGTCAATATAAATATCTCTCACTTATTTAAA | – | 0.2 | 0.113
51 | ACAGACGAAGGAGCCGCAAAGAAGTTATTAAGGAATGAATAATCCCTGAATATAAATATCTCTCACTTATTTAAA | – | 0.0984 | –
52 | ACAGACGAAGGAGCCGCAAAGAAGTTATTAAGAGATAAAAAATCCCTCAATATAAATATCTCTCACTTATTTAAA | – | 0.139 | –
53 | ACAGACGAAGGAGCCGCAAAGAAGTGATAAAGGGATGAATAATCCCTCAATATAAATATCTCTCACTTATTTAAA | – | 0.223 | –
54 | ACAGACGAAGGAGCCGCAAAGAAGTATTTAAGGGATGAATAATCCCTCAATATAAATATCTCTCACTTATTTAAA | – | 0.288 | 0.275
55 | ACAGACGAAGGAGCCGCAAAGAAGTTATGAATGGATGAATAATCCCTCAATATAAATATCTCTCACTTATTTAAA | – | 0.147 | –
56 | CGACATGTCCCGCTTCTTTCATTATTCCATTAGCAACTGTTTTGCTATATACATTTACCTTTTAAGAGGAGGAAT | 1.21 | – | –
57 | ACAGACGAAGGAGCCGCAAAGAAGTTATTTAGGGATGAATAATACCTCAATATAAATATCTCTCACTTATTTAAA | – | 0.141 | –
58 | ACAGACGAAGGAGCCGCAAAGAAGTTATTAAGTGATGAATAATCCCTCAATAGAAATATCTCTCACTTATTTAAA | – | 0.0533 | –
59 | ACAGACGAAGGAGCCGCAAAGAAGTCATTAAGGGACGAATAATCCCTCAATATAAATATCTCTCACTTATTTAAA | – | 0.154 | –
60 | ACAGACGAAGGAGCCGCAAAGAAGGTATTAAGTGATGAATAATCCCTCAATATAAATATCTCTCACTTATTTAAA | – | 0.104 | –
61 | CGACATGTCCCGCTTCTTTCATTACTCCGTTAGCAACTGTTTTGTTATATACATTTACCTTTTAAGAGGAGGAAT | 0.573 | – | –
62 | ACAGACGAAGGAGCCGCAAAGAAATTATTAAGGGATGAATAATCCTTCAATATAAATATCTCTCACTTATTTAAA | – | 0.674 | –
